Laboratory results from the supplement of paper PMC10567573.

B1: ZNF24 (parent)
chain: YGETCFPKGRFERKRNPSRKKQHI
B2: ATL3 (parent)
chain: HFKKTKKMGGKDFSFRYQQELEEE

Variants of: B1
Assay: protein stability index of a GFP-peptide fusion (GPS, HEK-293T) (PSI 1-6); higher = more stable
Settings: c terminus: a fixed tail appended
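Also: lentivirally expressed fusions sorted by FACS into six bins by GFP to DsRed ratio, PSI derived from sequencing read proportions per bin multiplied by bin number.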

Protein stability index of substitutions, site by site:
C5: Y 1.95; W 2.53; D 2.67; R 3.29; F 3.83; N 2.43; Q 3.15; G 2.17; V 3.17; M 2.25; I 3.16; T 2.47; L 3.05; E 3.15; K 4.01; A 3.17; H 3.63; S 3.7; P 3.61
Y1: W 2.6; F 1.9; I 3.74; Q 3.96; A 4.36; K 3.75; H 4.11; N 4.4; E 4.46; L 3.9; D 4.25; G 4.63; T 3.6; S 4.4; C 3.45; P 4.1; V 4.09; R 3.63; M 3.99
R13: E 3.1; C 2.33; S 3.14; Y 2.25; T 2.3; D 2.93; M 2.15; W 1.75; V 2.19; I 2.32; A 2.96; G 2.22; Q 2.61; P 3; N 2.87; H 3.21; L 2.58; K 2.9; F 2.43
R10: H 2.55; G 3.44; M 2.9; V 2.24; C 2.66; A 2.6; S 2.82; E 3.07; Q 3.38; K 2.71; F 2.83; T 3.23; W 1.71; N 2.93; I 2.92; D 3.66; P 2.56; Y 2.72; L 2.67
K8: R 2.88; H 2.1; C 1.68; G 2.93; S 2.42; A 2.17; P 2.11; V 2.36; Q 2.13; Y 2.74; T 2.49; L 2.07; E 2.96; N 1.93; I 2.49; D 3.56
K14: D 3.63; F 2.55; L 2.82; H 2.51; I 2.96; C 2.41; M 2.7; G 2.92; A 3.21; N 3.48; E 3.65
F6: A 3.64; H 4.08; M 4.07; E 4.51; G 3.8; D 4.46; V 3.82; Q 4.02; W 1.77; P 4.35; N 4.03; T 4.36; C 3.87; R 3.7; L 3.79; I 3.61; K 3.38; Y 4.74; S 3.73
E12: I 2.34; T 3.16; P 3.11; D 3.26; Y 2.46; W 2.3; F 2; L 3.59; K 2.91; H 3.09; N 3.1; V 2.16; S 2.85; M 1.87; C 2.8; R 3.88; Q 2.3; A 2.49; G 3.16
E3: H 2.56; M 3.41; Y 2.37; L 2.96; W 2.26; I 2.71; G 2; V 3.66; S 2.04; A 2.4; R 2.9; Q 3.2; C 2.75; P 2.54; K 3.11; N 1.95; F 2.71; D 2.2; T 2.62
G9: V 1.72; E 3.39; F 2.29; W 2.15; N 3.06; H 2.72; Y 3.75; D 2.71; C 1.98; Q 3.28; R 2.85; T 2.7; L 2.12; I 1.94; S 3; P 2.41; K 3.15; M 2.18; A 2.11
T4: C 2.12; K 2.13; A 2.96; S 3.43; Y 2.09; I 3.04; H 2.98; N 2.37; P 1.89; G 2.33; F 2.1; D 3.14; E 3.24; V 3.38; M 2.47; L 2.45; R 3.37; W 1.02
F11: V 2.59; A 3.43; E 3.16; D 2.99; G 3.32; M 2.55; Q 3.41; W 2.2; P 2.97; Y 3.32; K 3.13; T 3.28; N 3.33; L 2.35; C 2.58; H 3.05; S 3.18; I 2.59
G2: S 3.4; C 2.1; Q 3.44; K 3.21; L 2.58; R 3.41; M 3; T 2.33; E 4.37; N 3.65; W 3.17; V 2.74; P 2.89; A 2.34; I 1.76; F 2.51; D 4.33; H 2.15; Y 2.58
P7: G 2.82; E 3.63; T 3.02; Y 1.76; S 2.28; H 2.43; R 2.93; I 2.5; K 3.35; W 2.57; Q 2.26; D 3.5; L 1.9; C 2.81; M 3.07; V 3.12; N 3.69; A 2.77

Variants of: B2
Assay: as above
Settings: c terminus: a fixed tail appended

Protein stability index, by site and new letter:
E23: T 2.55; K 2.46; I 1.97; G 1.88; D 2.42; P 4.12; F 2.27; S 2.2; H 2.02; Y 1.71; L 2.22; M 2.61; V 2.27; C 3.01; Q 1.81; N 2.67; A 2.2
E20: P 3.22; H 3.98; S 3.94; W 2; N 3.16; G 3.11; Y 3.14; K 4.17; V 2.51; R 3.96; T 3.31; I 3.47; M 3.43; Q 2.91
E24: P 3.69; C 2.74; K 3.43; S 2.85; I 2.16; H 3.13; R 3.35; D 2.28; G 2.63; F 2.01; N 3.49; A 2.68; T 2.39; W 1.9; M 1.81; Q 2.08; V 3.28; Y 1.54
L21: C 2.1; I 2.98; H 2.44; Q 2.4; Y 1.4; T 4.24; S 4; D 4.71; P 4.57; R 2.46; N 4.27; F 1.53; K 3.3; E 3.19; V 2.72; M 1.53
E22: N 1.72; W 1.3; M 1.8; L 1.99; V 2.41; Q 1.59; P 3.31; Y 2.15; F 1.85; I 1.79; H 2.83; K 3.18; S 1.8; G 2.5; T 2.03; C 3.15; D 2.2
